Test results as given in US20240132548A1 (Janssen / Centocor, published 2024).
Changes are numbered by the printed parent chain.

Key:
Assay in all cases: BLI (Octet), biotinylated mAb on streptavidin sensors, culture supernatant
[1] = biological target: T1, RSV180916 (I152M + K226M + D486N + S215P + L203I + P101Q; C-tag, RSV A signal peptide) (respiratory syncytial virus, subgroup B …, UniProt O36634 26-109; P13843 137-540)
T1 chain 1: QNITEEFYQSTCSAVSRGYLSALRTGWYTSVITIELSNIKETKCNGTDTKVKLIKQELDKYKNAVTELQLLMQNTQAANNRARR
T1 chain 2: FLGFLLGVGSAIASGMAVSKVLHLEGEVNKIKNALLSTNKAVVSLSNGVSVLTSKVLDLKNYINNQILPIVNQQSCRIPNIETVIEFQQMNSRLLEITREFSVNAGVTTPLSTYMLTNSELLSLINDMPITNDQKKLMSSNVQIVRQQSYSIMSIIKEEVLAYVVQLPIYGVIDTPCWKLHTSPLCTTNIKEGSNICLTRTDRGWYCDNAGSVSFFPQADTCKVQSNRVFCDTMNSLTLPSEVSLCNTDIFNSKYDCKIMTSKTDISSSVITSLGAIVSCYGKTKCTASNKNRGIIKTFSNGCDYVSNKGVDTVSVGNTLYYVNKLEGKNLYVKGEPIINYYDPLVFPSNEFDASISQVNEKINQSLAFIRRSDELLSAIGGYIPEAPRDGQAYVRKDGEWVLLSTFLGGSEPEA
Method: (§1) Quantitative Octet (BioLayer Interferometry) was used for measuring protein concentration in the supernatants at day of harvest and after 7 or 30 days storage at 4° C. CR9501 (an antibody specifically recognizing pre-fusion RSV F protein, which comprises the variable regions of the antibodies 58C5 as described in WO2012/006596) and CR9506 (recognizing pre-fusion and post-fusion RSV F protein and comprising a heavy chain variable region comprising SEQ ID NO: 21, and a light chain variable region comprising SEQ ID NO: 22) were biotinylated by standard protocols and immobilized on Streptavidin biosensors (ForteBio, Portsmouth, UK).
(§2) Afterwards, the coated biosensors were blocked in mock cell culture supernatant. A quantitative experiment was performed as follows: temperature 30° C., shaking speed 1000 rpm, time of the assay 300 sec. The concentration of the protein was calculated using a standard curve. The standard curve was prepared for each coated antibody CR9501 and CR9506 using the pre-fusion RSV FA protein (SEQ ID NO: 19; described previously in WO17174568) diluted in mock medium. […] The data analysis was done using the ForteBio Data Analysis 10.0.1.6 software (ForteBio).

[2] = biological target: T2, RSV190417 (tag-free; I152M + K226M + D486N + S215P + L203I + P101Q + D489Y) (respiratory syncytial virus, subgroup B …, UniProt O36634 26-109; P13843 137-540)
T2 construct: Measured in culture supernatant, furin co-transfected
T2 chain 1: T1 chain 1
T2 chain 2: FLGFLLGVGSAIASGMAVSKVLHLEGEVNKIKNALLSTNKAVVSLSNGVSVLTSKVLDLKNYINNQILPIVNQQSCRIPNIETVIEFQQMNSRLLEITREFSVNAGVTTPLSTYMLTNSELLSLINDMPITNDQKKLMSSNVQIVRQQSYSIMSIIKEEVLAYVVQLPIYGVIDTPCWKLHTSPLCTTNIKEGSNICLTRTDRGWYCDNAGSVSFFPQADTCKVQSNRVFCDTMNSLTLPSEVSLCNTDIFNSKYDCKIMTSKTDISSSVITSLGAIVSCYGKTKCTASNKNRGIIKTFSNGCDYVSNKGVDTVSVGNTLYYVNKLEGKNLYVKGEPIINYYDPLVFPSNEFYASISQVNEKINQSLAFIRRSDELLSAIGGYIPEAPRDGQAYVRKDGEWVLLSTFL
Method: as §1, §2

[3] = biological target: T3, RSV180915 (I152M + K226M + D486N + S215P) (respiratory syncytial virus, subgroup B …, UniProt O36634 26-109; P13843 137-540)
T3 chain 1: T1 chain 1 with Q76P
T3 chain 2: T1 chain 2 with I67L
Method: as §1, §2

[4] = biological target: T4, RSV180917 (I152M + K226M + D486N + S215P + L203I + P101Q + D489Y + T357R + N371Y) (respiratory syncytial virus, subgroup B …, UniProt O36634 26-109)
T4 construct: also called RSV181917
T4 chain 1: T1 chain 1
T4 chain 2: T1 chain 2 with T221R, N235Y, D353Y
Method: as §1, §2

Measured: binding result

B1: CR9506 (antibody, human IgG1, kappa, V domains shown)
VH: EVQLVQSGAEVKKPGSSVKVSCKASGGTFSRSLITWVRQAPGQGLEWMGEISLVFGSAKNAQKFQGRVTITADESTSTAHMEMISLKHEDTAVYYCAAHQYGSGTHNNFWDESELRFDLWGQGTLVTVSS
VL: DIVMTQSPSSLSASVGDRVTIACRASQSIGTYLNWYQQKPGKAPKLLIYAASSLQSGVPSRFSGSGSGTHFTLAISSLQAEDFATYSCQQSYTIPYTFGQGTKLEIKR
notes: Biotinylated for Octet; coated and also used HRP-labelled as detection antibody in the ELISA
binds: all assays above
